Results reported in patent US12098206B2, “PDGF receptor antibody and use thereof” (Seoul National University R&DB Foundation, priority 2018, dated 2024).

B1: PRb-CC01: anti-mPDGFR-β scFv clone (VH SEQ ID NO 15, VL SEQ ID NO 16), tested as scFv-Cκ-anti-cotinine scFv bispecific antibody (antibody, V domains shown)
VH: AVTLDESGGGLQTPGGALSLVCKGSGFTFSSYNMGWVRQAPGKGLEFVAGISAADNSTAYGAAVDGRATISRDNGQSTVRLQLNNLRAEDTATYFCIRGGGSIDAWGHGTEVIVSS
VL: LTQPSSVSANLGGTVKITCSGGGSYYGWYQQKSPGSAPVTLIYYNDKRPSDIPSRFSGSKSGSTGTLTITGVQAEDEAVYFCGAWDNSAGYAGFGAGTTLTVL
modifications: VH of PRb-CC01; VL of PRb-CC01
B2: PRb-CC02: anti-mPDGFR-β scFv clone (VH SEQ ID NO 23, VL SEQ ID NO 24), tested as scFv-Cκ-anti-cotinine scFv bispecific antibody (antibody, V domains shown)
VH: AVTLDESGGGLQTPGGALSLVCKASGFTFSSYGMFWVRQAPGKGLEWVAGIDTGSGTNYGSAVKGRATISRDNGQSTVRLQLNNLRAEDTGTYFCTRGYAGTIDAWGHGTEVIVSSTS
VL: LTQPSSVSANPGETVKITCSGGGGSYGWYQQKSPGSAPVTVIYYNDKRPSDIPSRFSGSKSGSTGTLTITGVQAEDEAVYFCGSYNSSDSLFGAGTTLTVL
modifications: VH of PRb-CC02; VL of PRb-CC02
B3: PRb-CC03: anti-mPDGFR-β scFv clone (VH SEQ ID NO 31, VL SEQ ID NO 32), tested as scFv-Cκ-anti-cotinine scFv bispecific antibody (antibody, V domains shown)
VH: AVTLDESGGGLQTPGGTLSLVCKASGFTFSSYAMGWVRQAPGKGLEWVAGIDTAGGTAYGPAVKGRATISRDNGQSTVRLQLNNLRAEDTATYYCTRSSYIDTWGHGTEVIVSSTS
VL: LTQPSSVSANPGETVKITCSGGTYNYGWYQQKSPGSAPVTVIYWNDKRPSDIPSRFSGSKSGSTGTLTITGVQAEDEAVYYCGSSDSSGLIFGAGTTLTVL
modifications: VH of PRb-CC03; VL of PRb-CC03

What was measured:
PDGFR-β = PDGFR-β (Homo sapiens, UniProt P09619); conditions: cited from earlier work
PDGFR-β, sequence (P09619 33-1106): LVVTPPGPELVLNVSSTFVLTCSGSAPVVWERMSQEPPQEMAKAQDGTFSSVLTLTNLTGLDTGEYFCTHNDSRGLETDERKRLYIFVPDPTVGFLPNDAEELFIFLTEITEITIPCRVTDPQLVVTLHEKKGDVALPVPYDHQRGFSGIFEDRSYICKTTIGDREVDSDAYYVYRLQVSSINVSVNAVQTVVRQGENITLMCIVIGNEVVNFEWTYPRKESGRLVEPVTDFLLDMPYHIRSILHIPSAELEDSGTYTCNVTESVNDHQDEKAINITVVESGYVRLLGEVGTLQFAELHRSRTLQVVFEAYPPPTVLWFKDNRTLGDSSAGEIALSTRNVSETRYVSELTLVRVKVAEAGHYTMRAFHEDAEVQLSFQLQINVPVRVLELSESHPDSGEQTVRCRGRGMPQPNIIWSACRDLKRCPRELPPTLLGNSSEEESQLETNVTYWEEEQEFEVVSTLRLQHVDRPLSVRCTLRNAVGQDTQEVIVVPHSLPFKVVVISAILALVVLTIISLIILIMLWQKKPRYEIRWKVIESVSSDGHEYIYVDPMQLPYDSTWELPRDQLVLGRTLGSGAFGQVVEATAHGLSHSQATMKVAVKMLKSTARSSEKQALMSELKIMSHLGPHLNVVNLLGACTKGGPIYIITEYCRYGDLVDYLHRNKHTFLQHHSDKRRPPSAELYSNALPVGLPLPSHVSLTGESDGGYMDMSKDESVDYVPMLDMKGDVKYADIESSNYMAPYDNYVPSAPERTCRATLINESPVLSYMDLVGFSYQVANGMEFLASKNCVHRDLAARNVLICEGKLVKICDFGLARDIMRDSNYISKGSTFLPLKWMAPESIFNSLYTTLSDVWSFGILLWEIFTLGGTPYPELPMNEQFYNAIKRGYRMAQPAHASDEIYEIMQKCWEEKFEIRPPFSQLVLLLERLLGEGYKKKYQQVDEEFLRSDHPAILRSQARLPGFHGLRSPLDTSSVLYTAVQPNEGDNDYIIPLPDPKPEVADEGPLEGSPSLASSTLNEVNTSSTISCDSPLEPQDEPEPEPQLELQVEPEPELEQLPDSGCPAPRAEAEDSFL

[1] = combination of Olaratumab and doxorubicin compared to doxorubicin alone; cited from earlier work
[2] = rats; cited from earlier work
[3] = persons treated with up to 1,800 mg for 4 consecutive days; cited from earlier work
NIH3T3 cells [4] = assay: Internalization analysis by confocal microscopy in NIH3T3 cells; assay type: cell-based, mouse; conditions: 10 μg/mL, 37° C., 30 minutes, FIG. 4c
Method: The bispecific antibody of scFv-Cκ-scFv fusion protein was analyzed with a confocal microscope for visualizing internalization. NIH3T3 cells were treated with the bispecific antibody of scFv-Cκ-scFv (10 μg/mL) diluted in DMEM containing 10% FBS, and internalized at 37° C. for 30 minutes. After washing the cells 3 times with cold PBS, acidic buffer (0.2 M acetic acid, 0.5 M sodium chloride) was treated at room temperature for 5 minutes to remove the antibody bound to the cell surface. Cells were washed twice with cold PBS, fixed with 4% paraformaldehyde for 10 minutes, and then subjected to immunofluorescence staining as previously described [J. M. Lim et al., J. Cell. Biol. 210 (2015) 23].
Briefly, to block antibodies having non-specific reaction, cells were incubated in PBS containing 5% horse serum and 0.1% Triton X-100 for 30 minutes, and 2 μg/mL FITC-anti human Cκ antibody (TB28-2, BD Biosciences) was added at room temperature for 30 minutes. To image the initial endosomes, the cells were washed 3 times with PBS, incubated with PBS containing 5% horse serum and 0.1% Triton X-100 for 30 minutes, and then incubated with ati-RabS antibody diluted to 1:200 (C8B1, Cell Signaling Technology, Danvers, MA, USA). Alexa Fluor 546 goat anti-rabbit IgG (A-11035, Invitrogen) was sequentially treated. Cells were treated with 0.2 μg/mL DAPI to detect DNA. Confocal microscopy images were obtained using a Zeiss LSM 880 microscope, and images were analyzed with Zen software (Carl Zeiss, Thornwood, NY, USA).
To measure the cellular internalization of the bispecific antibody of scFv-Cκ-scFv, anti-mPDGFR-β x cotinine scFv-Cκ-scFv fusion protein was incubated in NIH3T3 cells, and then treated with FITC-anti-human Cκ antibody and endosome-specific antibody. It was imaged using a confocal microscope. […] When the images were merged, the present inventors confirmed that the fluorescence of the three antibody clones and the endosome-specific antibody were co-localized.

mPDGFR-β and cotinine = biological target: T1, mPDGFR-β and cotinine (Mus musculus, UniProt P05622); assay: Enzyme immunoassay, simultaneous binding to cotinine and mPDGFR-β; conditions: cotinine-BSA coated wells, then mPDGFR-β-Fc chimera; FIG. 3d
T1 construct: mPDGFR-β
T1 sequence (P05622 32-530): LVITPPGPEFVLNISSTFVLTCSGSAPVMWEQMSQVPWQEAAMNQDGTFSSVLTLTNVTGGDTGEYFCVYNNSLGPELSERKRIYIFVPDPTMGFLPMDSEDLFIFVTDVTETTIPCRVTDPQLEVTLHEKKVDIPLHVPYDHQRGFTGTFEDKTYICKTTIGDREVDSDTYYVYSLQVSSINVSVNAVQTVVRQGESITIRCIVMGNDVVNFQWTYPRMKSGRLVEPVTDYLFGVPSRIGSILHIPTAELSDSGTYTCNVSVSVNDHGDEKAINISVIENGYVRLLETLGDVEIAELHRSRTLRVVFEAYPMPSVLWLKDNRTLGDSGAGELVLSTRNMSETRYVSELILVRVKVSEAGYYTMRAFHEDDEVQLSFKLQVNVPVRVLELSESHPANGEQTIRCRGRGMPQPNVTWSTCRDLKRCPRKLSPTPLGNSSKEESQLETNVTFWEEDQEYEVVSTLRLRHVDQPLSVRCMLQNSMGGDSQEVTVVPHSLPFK
Method: In order to confirm whether the bispecific antibody has simultaneous binding ability to both cotinine and mPDGFR-β, anti-mPDGFR-β x cotinine scFv-Cκ-scFv fusion protein was reacted in wells coated with cotinine-BSA. Washing was performed for each process, and mPDGFR-β-Fc chimeric protein and HRP-anti human Fc antibody were sequentially incubated.

NIH3T3 cells [5] = assay: cells; assay type: cell-based, mouse; conditions: NIH3T3, FIG. 5; for toxicity with the addition of mPDGF-BB: complex with cot-duo or cot-duo-cot; for toxicity compared to control anti-HER2 x cotinine scFv-Cκ-scFv: complex with cotinine-duocarmycin, with or without mPDGF-BB
Method: NIH3T3 cells were added to 50 μL of DMEM supplemented with 10% FBS and 1% penicillin/streptomycin, placed in a 96-well plate (CLS3595, Corning) and incubated overnight in 5% CO2 at 37° C. incubator. In each well containing 50 μL of cells, 50 μL of 50 anti-PDGFR-β x cotinine scFv-Cκ-scFv fusion protein (25.6 pM-2 μM) complexed with cot-duo or cot-duo-cot obtained in Experimental Example 10 was added and incubated for 72 hours in 5% CO2 at 37° C. incubator. To test mPDGF-BB on the toxic effect of the bispecific antibody of scFv-Cκ-scFv and the cotinine-duocarmycin complex, mPDGF-BB (2 nM) was added together with 50 μL of the bispecific antibody scFv-Cκ-scFv and the cotinine-duocarmycin complex. The mixed complexes were added to 50 μL of NIH3T3 cells.
The bispecific antibody of anti-HER2 x cotinine scFv-Cκ-scFv was used as a control. After 72 hours of incubation in the cells, 100 μL of Cell Titer-Glo reagents (Promega Corp., Madison, WI, USA) were added to all wells according to the manufacturer's instructions, and luminescence was measured in a luminometer (PerkinElmer, Waltham, MA, USA). The experiment was repeated 3 times. Relative viability was calculated with the following formula: [% viability=(luminescence of experimental well-luminescence of background well)/(luminescence of control-luminescence of background well)×100]. The wells containing only new medium were used as background wells.
To evaluate the toxicity of the complex of anti-mPDGFR-B x cotinine scFv-Cκ-scFv bispecific antibodies and cotinine duocarmycin (cot-duo, cot-duo-cot), the complexes were added to NIH3T3 cells in the presence/absence of mPDGF-BB. The ATP of the cells was measured for relative cell viability. The toxicity of the bispecific antibody of scFv-Cκ-scFv fusion antibody was shown by IC50 in Table 6 and FIG. 5.
It was carried out in the same manner as in Example 7, except that the bispecific antibody related with the anti-mPDGFR-β antibody and the bispecific antibody related with the anti-hPDGFR-β antibody prepared in Example 10 were used. FIG. 20a to FIG. 20b are graphs showing the difference in cytotoxic activity of PRb-CN01 and PRb-CN32 bispecific antibodies and cotinine-duocarmycin complexes in the cells expressing PDGFR-β. In FIG. 20b, an experiment was repeated in the presence of mPDGF-BB.

mPDGFR-β = biological target: T2, mPDGFR-β (Mus musculus, UniProt P05622); assay: Competition enzyme immunoassay with mPDGF-BB; assay type: binding; conditions: mPDGF-BB 100 nM; FIG. 4a
T2 construct: mPDGFR-β
T2 sequence (P05622 32-530): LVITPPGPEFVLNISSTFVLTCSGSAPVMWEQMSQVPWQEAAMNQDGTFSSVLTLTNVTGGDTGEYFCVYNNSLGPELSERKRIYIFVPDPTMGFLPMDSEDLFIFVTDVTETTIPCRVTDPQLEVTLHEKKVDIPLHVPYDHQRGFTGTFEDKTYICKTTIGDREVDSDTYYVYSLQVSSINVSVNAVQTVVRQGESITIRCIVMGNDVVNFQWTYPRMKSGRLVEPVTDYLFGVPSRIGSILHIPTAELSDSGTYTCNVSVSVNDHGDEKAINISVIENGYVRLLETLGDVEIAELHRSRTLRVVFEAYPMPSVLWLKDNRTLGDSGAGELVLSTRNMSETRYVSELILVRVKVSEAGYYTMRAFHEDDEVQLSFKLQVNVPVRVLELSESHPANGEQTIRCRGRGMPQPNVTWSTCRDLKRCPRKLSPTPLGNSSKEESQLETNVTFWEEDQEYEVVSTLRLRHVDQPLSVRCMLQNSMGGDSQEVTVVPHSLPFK
Method: In order to confirm the competition between the bispecific antibody according to the present invention and mPDGF-BB, the microtiter plate was coated with mPDGFR-β-Fc chimera as mentioned above and then blocked. The microtiter plate was treated with various concentrations of the bispecific antibody (0.06 nM-1 μM) with or without addition of mPDGF-BB (100 nM), and then incubated at 37° C. for 2 hours. The washing, incubation, and detection were performed in the same manner as the enzyme immunoassay described above.
A competition enzyme immunoassay was developed to examine the effect of mPDGF-BB on the binding ability of anti-mPDGFR-β x cotinine scFv-Cκ-scFv fusion protein. The serially diluted bispecific antibodies (anti-mPDGFR-β scFv-Cκ-cotinine scFv) were incubated on wells coated with mPDGFR-β-Fc chimeric fusion protein with or without mPDGF-BB. HRP-anti-human Cκ antibody was incubated and then TMB was added. […] However, the binding ability of PRb-CN01 was not inhibited, so it confirmed that PRb-CN01 binds to mPDGFR-β in a noncompetitive manner to mPDGF-BB.

Row | Molecule | cross-reactivity with PDGFR-β (PDGFR-β) | overall mean survival [1] | LD50 [2] [mg/kg] | adverse side effects [3] | cellular internalization (NIH3T3 cells [4]) | simultaneous binding to mPDGFR-β and cotinine (mPDGFR-β and cotinine) | toxicity with the addition of mPDGF-BB (NIH3T3 cells [5]) | binding ability to mPDGFR-β in the presence of mPDGF-BB (mPDGFR-β) | toxicity compared to control anti-HER2 x cotinine scFv-Cκ-scFv (NIH3T3 cells [5])
1 | Olaratumab: recombinant human IgG1 antibody against PDGFR-α | dose not cross-react with PDGFR-β | significantly improved overall mean survival compared to doxorubicin alone |  |  |  |  |  |  | 
2 | CN1C(=O)CC[C@H]1c1cccnc1 [Cotinine, cotinine] |  |  | 4000 ± 100 | no adverse side effects were induced |  |  |  |  | 
3 | B1 |  |  |  |  | not internalized | simultaneously bound to mPDGFR-β and cotinine | decreased with the addition of mPDGF-BB | inhibited in the presence of mPDGF-BB | 
4 | B2 |  |  |  |  | Intracellular fluorescence was detected | simultaneously bound to mPDGFR-β and cotinine | decreased with the addition of mPDGF-BB | inhibited in the presence of mPDGF-BB | showed toxicity compared to the control antibody and the non-internalizing antibody (PRb-CC01), but did not show statistical significance
5 | B3 |  |  |  |  | Intracellular fluorescence was detected | simultaneously bound to mPDGFR-β and cotinine | decreased with the addition of mPDGF-BB | inhibited in the presence of mPDGF-BB | showed toxicity compared to the control antibody and the non-internalizing antibody (PRb-CC01), but did not show statistical significance
